Where a chain is given by its changes, count along the chain named.

To fix the notation:
B1: VRC07-523LS.v1 (antibody, human IgG1, kappa)
heavy: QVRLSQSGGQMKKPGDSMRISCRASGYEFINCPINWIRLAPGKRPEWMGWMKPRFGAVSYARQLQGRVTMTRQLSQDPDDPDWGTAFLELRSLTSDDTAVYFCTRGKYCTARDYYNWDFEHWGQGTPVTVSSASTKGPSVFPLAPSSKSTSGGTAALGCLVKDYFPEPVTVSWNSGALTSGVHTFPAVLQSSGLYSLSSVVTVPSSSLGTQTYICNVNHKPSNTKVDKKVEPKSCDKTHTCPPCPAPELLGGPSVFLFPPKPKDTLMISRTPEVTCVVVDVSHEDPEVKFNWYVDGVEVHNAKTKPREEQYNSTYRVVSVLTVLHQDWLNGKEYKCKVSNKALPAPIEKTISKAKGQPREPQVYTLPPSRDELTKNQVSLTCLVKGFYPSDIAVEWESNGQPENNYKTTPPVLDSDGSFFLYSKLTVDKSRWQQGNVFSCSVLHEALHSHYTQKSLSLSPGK
light: LTQSPGTLSLSPGETAIISCRTSQYGSLAWYQQRPGQAPRLVIYSGSTRAAGIPDRFSGSRWGPDYNLTISNLESGDFGVYYCQQYEFFGQGTKVQVDIKRTVAAPSVFIFPPSDEQLKSGTASVVCLLNNFYPREAKVQWKVDNALQSGNSQESVTEQDSKDSTYSLSSTLTLSKADYEKHKVYACEVTHQGLSSPVTKSFNRGEC
B2: VRC07-523LS.v11 (antibody, human IgG1, kappa)
heavy: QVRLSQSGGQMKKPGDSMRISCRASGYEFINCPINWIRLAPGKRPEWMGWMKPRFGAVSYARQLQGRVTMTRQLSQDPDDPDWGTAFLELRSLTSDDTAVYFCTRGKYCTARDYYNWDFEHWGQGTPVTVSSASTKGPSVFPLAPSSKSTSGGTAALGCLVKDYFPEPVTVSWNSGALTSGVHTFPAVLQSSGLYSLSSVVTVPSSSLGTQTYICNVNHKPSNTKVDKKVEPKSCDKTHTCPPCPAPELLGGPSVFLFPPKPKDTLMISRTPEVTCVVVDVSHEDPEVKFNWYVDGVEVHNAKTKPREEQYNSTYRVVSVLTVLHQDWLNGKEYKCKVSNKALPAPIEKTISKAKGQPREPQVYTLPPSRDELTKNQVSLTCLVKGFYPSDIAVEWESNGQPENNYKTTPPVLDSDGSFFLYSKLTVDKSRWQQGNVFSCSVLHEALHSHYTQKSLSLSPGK
light: B1 light with R21D
B3: VRC07-523LS.v34 (antibody, human IgG1, kappa)
heavy: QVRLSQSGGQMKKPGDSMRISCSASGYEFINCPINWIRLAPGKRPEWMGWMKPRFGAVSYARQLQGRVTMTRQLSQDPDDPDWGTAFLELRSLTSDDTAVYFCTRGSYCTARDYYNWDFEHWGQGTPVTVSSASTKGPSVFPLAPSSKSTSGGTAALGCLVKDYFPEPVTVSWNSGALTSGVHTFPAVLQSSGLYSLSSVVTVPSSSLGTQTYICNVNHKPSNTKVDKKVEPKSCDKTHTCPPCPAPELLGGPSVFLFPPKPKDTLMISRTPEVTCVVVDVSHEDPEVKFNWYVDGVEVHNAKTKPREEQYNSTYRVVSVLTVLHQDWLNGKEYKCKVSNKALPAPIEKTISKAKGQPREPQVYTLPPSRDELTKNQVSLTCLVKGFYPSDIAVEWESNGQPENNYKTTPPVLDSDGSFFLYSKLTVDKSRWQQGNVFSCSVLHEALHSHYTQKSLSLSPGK
light: B1 light with R21E

For the assay, the target named is T1, FcRn/β2m heterodimer (UniProt P55899 24-297; P61769 21-119).
T1 construct: also called His-tagged FcRn/β2m; neonatal Fc receptor
T1 sequence (P55899 24-297 limits assumed, chain 1 of 2): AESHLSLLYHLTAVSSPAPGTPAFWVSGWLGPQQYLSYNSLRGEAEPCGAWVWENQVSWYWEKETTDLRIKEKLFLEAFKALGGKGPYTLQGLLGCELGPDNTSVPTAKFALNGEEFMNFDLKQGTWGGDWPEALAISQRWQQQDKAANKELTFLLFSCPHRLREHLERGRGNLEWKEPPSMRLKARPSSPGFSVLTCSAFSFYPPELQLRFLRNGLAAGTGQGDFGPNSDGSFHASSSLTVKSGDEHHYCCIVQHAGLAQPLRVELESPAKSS
T1 sequence (P61769 21-119 limits assumed, chain 2 of 2): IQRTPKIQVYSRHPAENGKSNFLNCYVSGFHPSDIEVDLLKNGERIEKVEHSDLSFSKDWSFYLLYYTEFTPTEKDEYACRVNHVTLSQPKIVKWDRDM
Briefly: BLI (Octet), pH 7.4: Ni-NTA biosensors coated with His-tagged FcRn/β2m dipped into wells with the antibody as analyte. In general terms: In BLI a coated tip is dipped into the sample, and binding shifts an interference pattern.
Source text: Fc-FcRn binding kinetics by bio-layer interferometry. We used Octet HTX system (ForteBio) to measure the Fc-FcRn binding kinetics with FcRn/2m as ligand. […] For reference, we repeated the entire steps mentioned above but with blank Ni-NTA biosensors. Binding kinetic sensograms were globally fitted with 1:1 model and double referencing to extract kinetic parameters.
As usually defined, the Kd is the free concentration of one partner at which half of the binding sites on the other are occupied at equilibrium, for simple one-to-one binding. Low values mean tighter binding, high ones weaker binding. B1 registered a Kd of 0.93 µM.

With B2, the Kd was determined as 3.96 µM.

On to B3, for which binding was put at a Kd of 6 µM.

Values taken from patent publication US20250197483A1 (US Dept. of Health and Human Services, published 2025).
